Key:
[1] = molecular target: T1, CCR5 on CD4+ T cells of rhesus macaques (rhesus macaque, UniProt P61813 1-352); test: CCR5 receptor occupancy by flow cytometry on blood CD4+ T cells after a single 10 mg/kg s.c. dose in rhesus macaques
T1 construct: also called surface CCR5; CD195

[2] = molecular target: T1, CCR5 on CD4+ T cells of rhesus macaques; test: CCR5 receptor occupancy by flow cytometry on blood, rectal and vaginal CD4+ T cells after a single 10 mg/kg s.c. dose in rhesus macaques

| Binder | binding result [1] | binding result [2] |
| --- | --- | --- |
| leronlimab (human IgG4 Fc) (antibody, V domains shown, also called PRO140; PRO 140) VH: EVQLVESGGGLVKPGGSLRLSCAASGYTFSNYWIGWVRQAPGKGLEWIGDIYPGGNYIRNNEKFKDKTTLSADTSKNTAYLQMNSLKTEDTAVYYCGSSFGSNYVFAWFTYWGQGTLVTVSS VL: DIVMTQSPLSLPVTPGEPASISCRSSQRLLSSYGHTYLHWYLQKPGQSPQLLIYEVSNRFSGVPDRFSGSGSGTDFTLKISRVEAEDVGVYYCSQSTHVPLTFGQGTKVEIK | binds |  |
| macaque IgG4 LS leronlimab (antibody, V domains shown, also called MacLS; macaque IgG4 LS variant) VH: EVQLVESGGGLVKPGGSLRLSCAASGYTFSNYWIGWVRQAPGKGLEWIGDIYPGGNYIRNNEKFKDKTTLSADTSKNTAYLQMNSLKTEDTAVYYCGSSFGSNYVFAWFTYWGQGTLVTVSS VL: DIVMTQSPLSLPVTPGEPASISCRSSQRLLSSYGHTYLHWYLQKPGQSPQLLIYEVSNRFSGVPDRFSGSGSGTDFTLKISRVEAEDVGVYYCSQSTHVPLTFGQGTKVEIKR |  | binds |
